This experiment has as its target Mud C-terminal coiled-coil domain (Mud^CC) (Drosophila). Put plainly: SEC. In general terms: Size exclusion chromatography separates by hydrodynamic size, large species first.

For “Mud C-terminal coiled-coil domain (Mud^CC) (domain or fragment)”, the stoichiometry N (in general, a count of units in the complex or per binding partner) came to 3.

The values are drawn from paper PMC4660254.
